For the test, the target named is Mouse FGFR4/β-klotho complex co-expressed in L6 cells (mouse) (UniProt Q03142). Briefly: cell-based or functional assay.
Chain of Mouse FGFR4/β-klotho complex co-expressed in L6 cells (mouse) (Q03142 17-799, chain 1 of 2): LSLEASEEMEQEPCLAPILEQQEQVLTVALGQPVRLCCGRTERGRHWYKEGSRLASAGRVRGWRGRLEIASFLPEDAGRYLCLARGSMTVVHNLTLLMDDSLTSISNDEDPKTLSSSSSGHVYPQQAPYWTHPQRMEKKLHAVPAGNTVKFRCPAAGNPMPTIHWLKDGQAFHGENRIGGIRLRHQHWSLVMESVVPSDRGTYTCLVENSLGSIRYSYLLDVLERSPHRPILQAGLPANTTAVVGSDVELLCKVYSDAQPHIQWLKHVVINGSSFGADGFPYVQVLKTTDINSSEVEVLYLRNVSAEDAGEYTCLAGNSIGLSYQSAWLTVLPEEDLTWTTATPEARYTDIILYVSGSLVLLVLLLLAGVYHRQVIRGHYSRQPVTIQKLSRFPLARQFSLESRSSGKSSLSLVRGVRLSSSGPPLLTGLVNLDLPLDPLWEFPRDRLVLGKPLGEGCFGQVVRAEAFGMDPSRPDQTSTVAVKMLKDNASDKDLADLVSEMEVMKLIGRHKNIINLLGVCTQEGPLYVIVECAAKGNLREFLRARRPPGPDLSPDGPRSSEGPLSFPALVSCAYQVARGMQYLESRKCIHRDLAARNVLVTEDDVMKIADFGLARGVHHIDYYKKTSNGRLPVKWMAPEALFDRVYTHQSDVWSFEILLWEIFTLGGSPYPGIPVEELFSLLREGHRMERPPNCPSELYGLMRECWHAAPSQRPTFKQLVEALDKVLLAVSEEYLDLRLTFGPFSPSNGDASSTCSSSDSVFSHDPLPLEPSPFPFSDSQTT
Chain of Mouse FGFR4/β-klotho complex co-expressed in L6 cells (mouse) (Q99N32 whole entry, chain 2 of 2, further chain): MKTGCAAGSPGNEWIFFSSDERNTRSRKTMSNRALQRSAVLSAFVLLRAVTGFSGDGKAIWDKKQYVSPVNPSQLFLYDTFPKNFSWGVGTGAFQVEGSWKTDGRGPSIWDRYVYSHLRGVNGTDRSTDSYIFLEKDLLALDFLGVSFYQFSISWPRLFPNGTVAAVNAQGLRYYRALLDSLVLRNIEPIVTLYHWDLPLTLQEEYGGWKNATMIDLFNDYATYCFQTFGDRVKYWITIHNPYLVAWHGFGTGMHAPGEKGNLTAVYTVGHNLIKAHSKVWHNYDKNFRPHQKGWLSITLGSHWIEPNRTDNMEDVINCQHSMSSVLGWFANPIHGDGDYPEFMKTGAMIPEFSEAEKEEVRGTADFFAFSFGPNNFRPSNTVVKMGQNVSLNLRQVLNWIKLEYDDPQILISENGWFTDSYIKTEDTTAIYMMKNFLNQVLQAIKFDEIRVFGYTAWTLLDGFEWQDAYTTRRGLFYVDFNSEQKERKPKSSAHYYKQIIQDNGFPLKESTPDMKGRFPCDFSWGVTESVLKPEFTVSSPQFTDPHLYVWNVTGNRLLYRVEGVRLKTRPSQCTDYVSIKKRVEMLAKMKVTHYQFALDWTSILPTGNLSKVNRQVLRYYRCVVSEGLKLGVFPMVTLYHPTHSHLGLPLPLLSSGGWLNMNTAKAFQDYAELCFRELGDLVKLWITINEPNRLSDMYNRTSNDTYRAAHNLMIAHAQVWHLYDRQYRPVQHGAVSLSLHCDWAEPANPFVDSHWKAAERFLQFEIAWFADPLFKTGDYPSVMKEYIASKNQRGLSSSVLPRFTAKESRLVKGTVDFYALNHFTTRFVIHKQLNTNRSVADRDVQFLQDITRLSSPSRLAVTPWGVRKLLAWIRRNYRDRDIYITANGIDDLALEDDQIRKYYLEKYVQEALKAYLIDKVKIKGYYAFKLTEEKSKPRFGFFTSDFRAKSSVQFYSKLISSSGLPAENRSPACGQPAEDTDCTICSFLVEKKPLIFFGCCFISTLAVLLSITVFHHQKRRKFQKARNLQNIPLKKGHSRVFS

As to “FGF19 (wild type human fibroblast growth factor 19) (from UniProt O95750 23-216) (ligand)”, the EC50 (pM), ELK1 luciferase reporter in L6 cells is 52.5 pM and the Emax (fold potentiation), ELK1 luciferase reporter in L6 cells (fold potentiation) stood at 1.82.

(Values after US20230226151A1.)
